B1: FP150 (Fc fusion)
chain: DKTHTCPPCPAPEAAGAPSVFLFPPKPKDTLMISRTPEVTCVVVDVSHEDPEVKFNWYVDGVEVHNAKTKPREEQQNSTYRVVSVLTVLHQDWLNGKEYKCKVSNKALKAPIEKTISKAKGQPREPQVYTLPPSRDELTKNQVSLTCLVKGFYPSDIAVEWESNGQPENNYKTTPPVLDSDGSFFLYSKLTVDKSRWQQGNVFSCSVMHEALHNHYTQKSLSLSPGGGGSGGGGSGGGGSTALGRRKAEDRIKETLWADGVKIDEKDFEHIKSSHEDYFAVEYGKGSGYYDVNKKMDSEDTALCVGAVVTNMFHWWVDQNRENIEKFKKQDPENNGVMKFEGVKEATVDELNEFYRDNRDNYADQSRFFDLIKKHFGNKALNPEELFELYFNGFYYGSSHRYIEDNEPAQGNLFSKVLENNKLLNPERSYGIDGFSNNVINALKSHKVLGLVYTTPLRYRHIISMWGADIDQDGKVKAIYVTDSDDREITFNDNSKRRIGMIRYDVLVDDNGNIRFTGKGATHKEEGAIYAGLYSLSRGDEVWEDYFKKYPEVQENL
B2: FP158 (Fc fusion)
chain: DKTHTCPPCPAPEAAGAPSVFLFPPKPKDTLMISRTPEVTCVVVDVSHEDPEVKFNWYVDGVEVHNAKTKPREEQQNSTYRVVSVLTVLHQDWLNGKEYKCKVSNKALKAPIEKTISKAKGQPREPQVYTLPPSRDELTKNQVSLTCLVKGFYPSDIAVEWESNGQPENNYKTTPPVLDSDGSFFLYSKLTVDKSRWQQGNVFSCSVMHEALHNHYTQKSLSLSPGGGGSGGGGSGGGGSTALGRRKAEDRIKETLWADGVKIDEKDFEHIKSSHEDYFAVEYGKGSGYYDVNKKMDSEDTALCVGAVVTNMFHWWVDQNRENIEKFKKQDPENNGVMKFEGVKEATVDELNEFYRDNRDNYADQSRFFDLIKKHFGNKALNPEELFELYFNGFYYGSSHRYIEDNEPAQNNLFSKVLENNKLLNPERSYGIDGFSNNVINALKSHKVLGLVYTTPLRYRHIISMWGADIDQDGKVKAIYVTDSDDREITFNDNSKRRIGMIRYDVLVDDNGNIRFTGKGATHKEEGAIYAGLYSLSRGDKVWKDYFKKYPEVQENL
B3: FP159 (Fc fusion)
chain: DKTHTCPPCPAPEAAGAPSVFLFPPKPKDTLMISRTPEVTCVVVDVSHEDPEVKFNWYVDGVEVHNAKTKPREEQQNSTYRVVSVLTVLHQDWLNGKEYKCKVSNKALKAPIEKTISKAKGQPREPQVYTLPPSRDELTKNQVSLTCLVKGFYPSDIAVEWESNGQPENNYKTTPPVLDSDGSFFLYSKLTVDKSRWQQGNVFSCSVMHEALHNHYTQKSLSLSPGGGGSGGGGSGGGGSTALGRRKAEDRIKETLWADGVKIDEKDFEHIKSSHEDYFAVEYGKGSGYYDVNKKMDSEDTALCVGAVVTNMFHWWVDQNRENIEKFKKQDPENNGVMKFEGVKEATVDELNEFYRDNRDNYADQSRFFDLIKKHFGNKALNPEELFELYFNGFYYGSSHRYIEDNEPAQNNLFSKVLENNKLLNPERSYGIDGFSNNVINALKSHKVLGLVYTTPLRYRHIISMWGADIDQDGKVKAIYVTDSDDREITFNDNSKRRIGMIRYDVLVDKNGNIRFTGKGATHKNEGAIYAGLYSLSRGDEVWEDYFKKYPEVQENL
B4: FP160 (Fc fusion)
chain: DKTHTCPPCPAPEAAGAPSVFLFPPKPKDTLMISRTPEVTCVVVDVSHEDPEVKFNWYVDGVEVHNAKTKPREEQQNSTYRVVSVLTVLHQDWLNGKEYKCKVSNKALKAPIEKTISKAKGQPREPQVYTLPPSRDELTKNQVSLTCLVKGFYPSDIAVEWESNGQPENNYKTTPPVLDSDGSFFLYSKLTVDKSRWQQGNVFSCSVMHEALHNHYTQKSLSLSPGGGGSGGGGSGGGGSTALGRRKAEDRIKETLWADGVKIDEKDFEHIKSSHEDYFAVEYGKGSGYYDVNKKMDSEDTALCVGAVVTNMFHWWVDQNRENIEKFKKQDPENNGVMKFEGVKEATVDELNEFYRDNRDNYADQSRFFDLIKKHFGNKALNPEELFELYFNGFYYGSSHRYIEDNEPAQNNLFSKVLENNKLLNPERSYGRDGFSNNVINALKSHKVLGLVYTTPLRYRHIISMWGADIDQDGKVKAIYVTDSDDREITFNDNSKRRIGMIRYDVLVDKNGNIRFTGKGATHKNEGAIYAGLYSLSRGDKVWKDYFKKYPEVQENL
B5: FP163 (Fc fusion)
chain: DKTHTCPPCPAPEAAGAPSVFLFPPKPKDTLMISRTPEVTCVVVDVSHEDPEVKFNWYVDGVEVHNAKTKPREEQQNSTYRVVSVLTVLHQDWLNGKEYKCKVSNKALKAPIEKTISKAKGQPREPQVYTLPPSRDELTKNQVSLTCLVKGFYPSDIAVEWESNGQPENNYKTTPPVLDSDGSFFLYSKLTVDKSRWQQGNVFSCSVMHEALHNHYTQKSLSLSPGGGGSGGGGSGGGGSTALGRRKAEDRIKETLWADGVKIDEKDFEHIKSSHEDYFAVEYGKGSGYYDVNKKMDSEDTALCVGAVVTNMFHWWVDQNRENIEKFKKQDPENNGVMKFEGVKEATVDELNEFYRDNRDNYADQSRFFDLIKKHFGNKALNPEELFELYFNGFYYGSSHRYIEDNEPAQNNLFSKVLENNKLLNPERSYGIDGFSNNVINALKSHKVLGLVYTTPLRYRHIISMWGADIDQDGKVKAIYVTDSDDREITFNDNSKRRIGMIRYDVLVDDEGNIRFTGKGATHKEEGAIYAGLYSLSRGDEVWEDYFKKYPEVQENL
B6: FP164 (Fc fusion)
chain: DKTHTCPPCPAPEAAGAPSVFLFPPKPKDTLMISRTPEVTCVVVDVSHEDPEVKFNWYVDGVEVHNAKTKPREEQQNSTYRVVSVLTVLHQDWLNGKEYKCKVSNKALKAPIEKTISKAKGQPREPQVYTLPPSRDELTKNQVSLTCLVKGFYPSDIAVEWESNGQPENNYKTTPPVLDSDGSFFLYSKLTVDKSRWQQGNVFSCSVMHEALHNHYTQKSLSLSPGGGGSGGGGSGGGGSTALGRRKAEDRIKETLWADGVKIDEKDFEHIKSSHEDYFAVEYGKGSGYYDVNKKMDSEDTALCVGAVVTNMFHWWVDQNRENIEKFKKQDPENNGVMKFEGVKEATVDELNEFYRDNRDNYADQSRFFDLIKKDFGNKALNPEELFELYFNGFYYGSSHRYIEDNEPAQNNLFSKVLENNKLLNPERSYGIDGFSNNVINALKSHKVLGLVYTTPLRYRHIISMWGADIDQDGKVKAIYVTDSDDREITFNDNSKRRIGMIRYDVLVDDNGNIRFTGKGATHKEEGAIYAGLYSLSRGDEVWEDYFKKYPEVQENL
B7: FP165 (Fc fusion)
chain 1: DKTHTCPPCPAPEAAGAPSVFLFPPKPKDTLMISRTPEVTCVVVDVSHEDPEVKFNWYVDGVEVHNAKTKPREEQQNSTYRVVSVLTVLHQDWLNGKEYKCKVSNKALKAPIEKTISKAKGQPREPQVYTLPPSRDELTKNQVSLWCLVKGFYPSDIAVEWESNGQPENNYKTTPPVLDSDGSFFLYSKLTVDKSRWQQGNVFSCSVLHEALHSHYTQKSLSLSPGGGGSGGGGSGGGGSTALGRRKAEDRIKETLWADGVKIDEKDFEHIKSSHEDYFAVEYGKGSGYYDVNKKMDSEDTALCVGAVVTNMFHWWVDQNRENIEKFKKQDPENNGVMKFEGVKEATVDELNEFYRDNRDNYADQSRFFDLIKKHFGNKALNPEELFELYFNGFYYGSSHRYIEDNEPAQNNLFSKVLENNKLLNPERSYGIDGFSNNVINALKSHKVLGLVYTTPLRYRHIISMWGADIDQDGKVKAIYVTDSDDREITFNDNSKRRIGMIRYDVLVDDNGNIRFTGKGATHKEEGAIYAGLYSLSRGDEVWEDYFKKYPEVQENL
chain 2: DKTHTCPPCPAPEAAGAPSVFLFPPKPKDTLMISRTPEVTCVVVDVSHEDPEVKFNWYVDGVEVHNAKTKPREEQQNSTYRVVSVLTVLHQDWLNGKEYKCKVSNKALKAPIEKTISKAKGQPREPQVYTLPPSRDELTKNQVSLSCAVKGFYPSDIAVEWESNGQPENNYKTTPPVLDSDGSFFLVSKLTVDKSRWQQGNVFSCSVLHEALHSHYTQKSLSLSPG
B8: FP167 (Fc fusion)
chain 1: DKTHTCPPCPAPEAAGAPSVFLFPPKPKDTLMISRTPEVTCVVVDVSHEDPEVKFNWYVDGVEVHNAKTKPREEQQNSTYRVVSVLTVLHQDWLNGKEYKCKVSNKALKAPIEKTISKAKGQPREPQVYTLPPSRDELTKNQVSLWCLVKGFYPSDIAVEWESNGQPENNYKTTPPVLDSDGSFFLYSKLTVDKSRWQQGNVFSCSVMHEALHNHYTQKSLSLSPGGSSAPGSSAPGSSAPTALGRRKAEDRIKETLWADGVKIDEKDFEHIKSSHEDYFAVEYGKGSGYYDVNKKMDSEDTALCVGAVVTNMFHWWVDQNRENIEKFKKQDPENNGVMKFEGVKEATVDELNEFYRDNRDNYADQSRFFDLIKKHFGNKALNPEELFELYFNGFYYGSSHRYIEDNEPAQNNLFSKVLENNKLLNPERSYGIDGFSNNVINALKSHKVLGLVYTTPLRYRHIISMWGADIDQDGKVKAIYVTDSDDREITFNDNSKRRIGMIRYDVLVDDNGNIRFTGKGATHKEEGAIYAGLYSLSRGDEVWEDYFKKYPEVQENL
chain 2: DKTHTCPPCPAPEAAGAPSVFLFPPKPKDTLMISRTPEVTCVVVDVSHEDPEVKFNWYVDGVEVHNAKTKPREEQQNSTYRVVSVLTVLHQDWLNGKEYKCKVSNKALKAPIEKTISKAKGQPREPQVYTLPPSRDELTKNQVSLSCAVKGFYPSDIAVEWESNGQPENNYKTTPPVLDSDGSFFLVSKLTVDKSRWQQGNVFSCSVMHEALHNHYTQKSLSLSPG
B9: FP168 (Fc fusion)
chain 1: DKTHTCPPCPAPEAAGAPSVFLFPPKPKDTLMISRTPEVTCVVVDVSHEDPEVKFNWYVDGVEVHNAKTKPREEQQNSTYRVVSVLTVLHQDWLNGKEYKCKVSNKALKAPIEKTISKAKGQPREPQVYTLPPSRDELTKNQVSLWCLVKGFYPSDIAVEWESNGQPENNYKTTPPVLDSDGSFFLYSKLTVDKSRWQQGNVFSCSVLHEALHSHYTQKSLSLSPGGSSAPGSSAPGSSAPTALGRRKAEDRIKETLWADGVKIDEKDFEHIKSSHEDYFAVEYGKGSGYYDVNKKMDSEDTALCVGAVVTNMFHWWVDQNRENIEKFKKQDPENNGVMKFEGVKEATVDELNEFYRDNRDNYADQSRFFDLIKKHFGNKALNPEELFELYFNGFYYGSSHRYIEDNEPAQNNLFSKVLENNKLLNPERSYGIDGFSNNVINALKSHKVLGLVYTTPLRYRHIISMWGADIDQDGKVKAIYVTDSDDREITFNDNSKRRIGMIRYDVLVDDNGNIRFTGKGATHKEEGAIYAGLYSLSRGDEVWEDYFKKYPEVQENL
chain 2: DKTHTCPPCPAPEAAGAPSVFLFPPKPKDTLMISRTPEVTCVVVDVSHEDPEVKFNWYVDGVEVHNAKTKPREEQQNSTYRVVSVLTVLHQDWLNGKEYKCKVSNKALKAPIEKTISKAKGQPREPQVYTLPPSRDELTKNQVSLSCAVKGFYPSDIAVEWESNGQPENNYKTTPPVLDSDGSFFLVSKLTVDKSRWQQGNVFSCSVLHEALHSHYTQKSLSLSPG

Biological target: Human IgE antibody (human)
Test: cell-based or functional assay

Point of comparison: B3, “EC50 CE-SDS IgE” value 2.45 nM. Against it:
- B1 — 2.1-fold lower, 1.15 nM
- B2 — 12-fold lower, 0.2 nM
- B4 — 1.6-fold higher, 4.04 nM
- B5 — 12-fold higher, 30.5 nM
- B6 — 7.1-fold higher, 17.4 nM
- B7 — 12-fold higher, 29.3 nM
- B9 — 7.2-fold higher, 17.6 nM

Point of comparison: B1, “EC50 MSD IgE” value 2.2 nM. Against it:
- B7 — 2.7-fold lower, 0.822 nM
- B8 — 3.1-fold lower, 0.721 nM
- B9 — 3.5-fold lower, 0.637 nM

Source: patent publication US20250340857A1 (SEISMIC THERAPEUTIC, published 2025)
